This is an account of results in patent US20230106715A1 (BIOSION, published 2023).

Experiment [1] deals with T1, mouse Siglec15-his protein (mouse).
T1 construct: In house made
T1 chain: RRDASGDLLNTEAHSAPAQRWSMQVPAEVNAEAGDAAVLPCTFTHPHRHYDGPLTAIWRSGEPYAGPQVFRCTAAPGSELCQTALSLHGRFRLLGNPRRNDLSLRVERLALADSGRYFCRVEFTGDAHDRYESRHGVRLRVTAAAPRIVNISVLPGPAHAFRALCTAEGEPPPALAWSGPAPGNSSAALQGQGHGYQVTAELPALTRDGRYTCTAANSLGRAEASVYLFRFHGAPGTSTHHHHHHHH
The experiment can be described thus: indirect ELISA on coated mouse Siglec15-his. Here is the method: (§1) The anti-Siglec15 antibodies' cross-reactions to cynomolgus or mouse Siglec15 proteins were measured. Briefly, 96-well micro plates were coated with 100 μl of 2 μg/ml cynomolgus Siglec15-his protein (in house made with SEQ ID NO: 21), or 2 μg/ml mouse Siglec15-his protein (in house made with SEQ ID NO: 22) in carbonate/bicarbonate buffer (pH 9.6) for 2 hours at 37° C. ELISA plates were washed once with wash buffer (PBS+0.05% v/v Tween-20, PBST) and then blocked with 200 μl/well blocking buffer (5% w/v non-fatty milk in PBST) overnight at 4° C. Plates were washed 4 times and incubated with 100 μl serially diluted anti-Siglec15 antibodies of the disclosure or controls (starting at 66.7 nM, 5-fold serial dilution in PBST with 2.5% w/v non-fatty milk) for 40 minutes at 37° C. ELISA plates were washed 4 times again and incubated with Peroxidase AffiniPure Goat Anti-Human IgG, F(ab)₂ fragment specific (1:5000 dilution in PBST buffer, Jackson Immunoresearch, Cat #109-035-097, 100 μl/well) for 40 minutes at 37° C. After a final wash, plates were incubated with 100 μl/well TMB (Innoreagents, Cat #TMB-S-002). The reaction was stopped 4 minutes later at room temperature with 50 μl 1M H₂SO₄, and the absorbance of each well was read on a microplate reader using dual wavelength mode with 450 nm for TMB and 630 nm as the reference wavelength, then the OD (450-630) values were plotted against antibody concentration. Data was analyzed using Graphpad Prism software and EC₅₀ values were reported.

Experiment [2] has as its target T2, human Siglec15 on human-siglec15-2D3-1E1 cells (human, UniProt Q6ZMC9 20-328).
T2 construct: whole, on cells; Transfected HEK-293 cells; also called cell surface human Siglec15
T2 sequence (looked up): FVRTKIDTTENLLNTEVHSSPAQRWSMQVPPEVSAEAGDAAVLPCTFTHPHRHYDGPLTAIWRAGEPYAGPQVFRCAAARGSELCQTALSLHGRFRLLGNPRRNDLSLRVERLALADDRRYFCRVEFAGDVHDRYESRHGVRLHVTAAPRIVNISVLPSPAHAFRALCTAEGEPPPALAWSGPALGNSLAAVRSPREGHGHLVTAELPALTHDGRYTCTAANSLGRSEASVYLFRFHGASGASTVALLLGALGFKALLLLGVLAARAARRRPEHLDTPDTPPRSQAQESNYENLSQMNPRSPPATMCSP
The experiment can be described thus: cell based binding FACS on human-siglec15-2D3-1E1 cells. How it is done:
The binding activities of the anti-Siglec15 antibodies to cell surface Siglec15 were tested by flow cytometry (FACS), using in-house prepared human-siglec15-2D3-1E1 cells expressing human Siglec15 (amino acid residues Met1-Pro328 of uniprot #Q6ZMC9) on cell membranes. The human-siglec15-2D3-1E1 cells were prepared by transfecting HEK-293 cells (ATCC #CRL-1573) with pCMV-T-P plasmids inserted with human Siglec15 coding sequence between EcoRI and XbaI sites, following the instruction of lipofectamine 3000 transfection reagent (Thermo Fisher). The human-siglec15-2D3-1E1 cells were harvested from cell culture flasks, washed twice and re-suspended in phosphate buffered saline (PBS) containing 2% v/v Fetal Bovine Serum (FACS buffer). 2×10⁵ cells per well in 96 well-plates were incubated in 100 μL serially diluted anti-Siglec15 antibodies or controls (starting at 66.67 nM, 5-fold serial dilution) in FACS buffer for 40 minutes on ice. […] Following a 40-minute incubation at 4° C. in dark, cells were washed three times and re-suspended in FACS buffer. Fluorescence was measured using a Becton Dickinson FACS Canto II-HTS equipment. Data was analyzed using Graphpad Prism software and EC₅₀ values were reported.

The target in experiment [3] is T3, cynomolgus monkey Siglec15-his protein (cynomolgus monkey).
T3 construct: In house made; also called Cynomolgus Siglec15-his; cynomolgus Siglec15
T3 chain: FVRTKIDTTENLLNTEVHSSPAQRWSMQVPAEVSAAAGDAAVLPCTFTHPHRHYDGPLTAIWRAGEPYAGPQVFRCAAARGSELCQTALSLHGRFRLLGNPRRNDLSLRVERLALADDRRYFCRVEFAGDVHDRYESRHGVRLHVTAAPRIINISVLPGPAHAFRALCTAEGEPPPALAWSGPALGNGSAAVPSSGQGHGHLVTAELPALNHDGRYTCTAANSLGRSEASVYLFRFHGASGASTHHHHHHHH
The experiment can be described thus: indirect ELISA on coated cynomolgus Siglec15-his. Here is the method: as §1
Background: In an ELISA, binding on a coated surface is turned into a signal by an enzyme label.

B1: A1E10G7H9 (antibody, V domains shown)
VH: QVQLQESGPGLVKPSGTLSLTCAVSGGSISSSNWWHWVRQPPGKGLEWIGEIYHSGNTNYKPSLKSRVTISVDKSKNQFSLKLSSVTAADTAVYYCARDEGNGWSNAFDIWGQGTMVTVSS
VL: ENVLTQSPGTLSLSPGERVTLSCRASQSVSSSYLAWYQQKPGQAPRFLIYGASGGATGIPDRFSGSGSGTDFTLTISRLEPEDFAVYYCQQYGSSPITFGQGTRLEIK
notes: Fully human antibody from transgenic mouse hybridoma
Broadly, the EC50 is the concentration needed to bring the measured effect to its halfway point. For B1, the EC50 is 0.329 nM in experiment [1] and 0.182 nM in experiment [2].

B2: anti-Siglec15 benchmark (ch5G12) (antibody, human IgG1, kappa, V domains shown)
VH: QVQLQQPGAELVKPGASVKMSCKASGYTFTSYWITWVIQRPGQGLEWIGDIYCGSDTMHYNEKFKNKATLTVDTSSSTAYMQLSSLTSEDSAVYYCARWWDYGSSYDYFDYWGQGTTLTVSS
VL: DIKMTQSPSSMYASLGERVTITCKASQDINSYLSWFQQKPGKSPKTLIYRANRLVDGVPSRFSGSGSGQDYSLTISSLEYEDMGIYYCLQYDEFPYTFGGGTKLEIKR
notes: ch5G12 (US 20190202912A1); also called BM; Siglec15-ch5G9
With B2, the EC50 came to 0.361 nM in experiment [1], 0.201 nM in experiment [3] and 11.3 nM in experiment [2].

B3: A2A5C7E8 (antibody, V domains shown)
VH: EVQLVQSGAEVKKPGESLRISCKGSGYSFTTYWISWVRQMPGKGLEWMGLIDPSDSYTNYSPSFQGHVTISTDKSISTAYLQWSSLKASDTAMYYCARGGYYGSEEDYWGQGTLVTVSS
VL: EIVLTQSPGTLSLSPGERATLSCRASQSVSSSRLAWFQQKSGQAPRLLIFDASSRATGIPDRFSGSGSGTDFTLTISRLEPEDFAVYYCQQYGSSPRTFGQGTKVEFK
notes: Fully human antibody from transgenic mouse hybridoma; also called A2A5C7E8-1
Take B3: the half-maximal effective concentration (EC50) turned out to be 0.26 nM in experiment [1] and 24.1 nM in experiment [2].

B4: B2D7H7A3C1 (antibody, V domains shown)
VH: QVQLQQSGAELVRPGTSVQMSCKAAGYTFTNYWIGWVKQRPGHGLEWVGDIHPGINYTNNNEKFRGKATLTADTSSNTAYMQLRGLTSDDSAIYYCARVDYDYDGSYIMDYWGQGTSVTVSS
VL: QIVLSQSPALLSASPGEKVTMTCRASSSVSYMYWYQQKPGSSPKPWIYATSNLTSGVPARFSGSGSGTSYSLTISRVEAEDAATYFCQQWNSKPWTFGGGSKLEIR
notes: Mouse monoclonal antibody from hybridoma; also called mouse B2D7H7A3C1
As for B4, the half-maximal effective concentration (EC50) in experiment [3] was determined as 0.197 nM.

B5: B2H2H1H7 (antibody, V domains shown)
VH: QVQLQQSGAELVRPGTSVQMSCKAAGYTFTNYWIGWVKQRPGHGLEWVGDIHPGINYTNNNEKFRGKATLTADTSSSTAYMQLRGLTSDDSAIYYCARVDYDYDGSYIMDYWGQGTSVTVSS
VL: QIILSQSPALLSASPGEKVTMTCRASSSVSYMYWYQQKPGSSPKPWIYATSNLTSGVPARFSGSGSGTSYSLTISRVEAEDAATYFCQQWNSKPWTFGGGSRLEIR
notes: Mouse monoclonal antibody from hybridoma; also called mouse B2H2H1H7; B2H2H1A7
In experiment [3], B5 returned a 50% effective concentration (EC50) of 0.179 nM.

B6: B2G12H3E8 (antibody, V domains shown)
VH: QVQLKQSGAELVRPGTSVQMSCKAVGYTFTNYWIGWVKQRPGHGLEWVGDIHPGINYTNNNEKFRGKATLTADTSSSTAYMQLRGLTSDDSAIYYCARVDYDYDGSYIMDYWGQGTSVTVSS
VL: QIVLSQSPALLSASPGEKVTMTCRASSSVSYMYWYQQKPGSSPKPWIYATSNLTSGVPARFSGSGSGTSYSLTISRVEAEDAATYFCQQWNSKPWTFGGGSKLEIR
notes: Mouse monoclonal antibody from hybridoma; also called mouse B2G12H3E8
The molecule B6 yielded an EC50 in experiment [3] of 0.146 nM.
